US20190233486A1 (ACCELERON PHARMA, published 2019)

Assays:
activin A = molecular target: T1, activin A (UniProt P08476 311-426); test: Biacore SPR; ligand coupled to the chip, receptor-Fc flowed over (data reproduced from WO2006/012627)
T1 construct: also called ActA
T1 sequence (looked up): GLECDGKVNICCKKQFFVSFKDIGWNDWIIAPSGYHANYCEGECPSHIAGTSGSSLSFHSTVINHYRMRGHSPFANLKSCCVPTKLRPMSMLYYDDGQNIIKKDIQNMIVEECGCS

GDF11 = molecular target: T2, GDF11 (UniProt O95390 299-407); test: as above
T2 construct: also called growth and differentiation factor-11; BMP11
T2 sequence (looked up): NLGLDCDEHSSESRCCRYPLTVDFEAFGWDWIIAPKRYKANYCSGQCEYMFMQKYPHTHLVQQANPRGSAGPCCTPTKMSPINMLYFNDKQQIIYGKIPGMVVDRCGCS

B1: Soluble ActRIIB-Fc WT (64A) (Fc fusion, not shown: a dimerising Fc or GST)
chain: GRGEAETRECIYYNANWELERTNQSGLERCEGEQDKRLHCYASWANSSGTIELVKKGCWLDDFNCYDRQECVATEENPQVYFCCCEGNFCNERFTHLPEA
notes: Data reproduced from WO2006/012627
- Kd (activin A): 180 nM
- Kd (GDF11): 260 nM
